IC50, Ki and Kd data for 14 molecules are collected here from patent US9862746B2, “Compositions and methods relating to hindering DOT1L recruitment by MLL-fusion proteins” (The Regents of the University of Michigan, priority 2013, dated 2018).

Where two headings read alike, the source gives them in different places. Where a SMILES comes first, the peptide text is derived from it.

The target in experiment [1] is T1, AF9 (Homo sapiens, UniProt P42568).
T1 sequence (P42568 497-568): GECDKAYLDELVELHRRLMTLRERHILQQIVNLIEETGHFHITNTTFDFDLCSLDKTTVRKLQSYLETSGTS
Nature of the experiment: SPR competitive binding assay of small molecules, AF9-DOT1L. Set-up: against AF9(497-568) and ENL (489-559) proteins running different tested concentrations over CM5 chip; GB1 (pGB1-LIC vector); made in house; host or cells: Escherichia coli BL21 (DE3). The source says:
Several secondary assays have already been developed to support hit confirmation and the hit-to-probe optimization process. The established and optimized SPR-based competitive assay utilizing DOT1L protein (826-1095) immobilized on the CM5 sensor chip was used as a secondary counter screen assay to validate binding of compounds to AF9. […] Both assays gave similar IC50 values.
(§1) To further validate the binding of the confirmed compounds and identify potential promiscuous inhibitors, several secondary assays have been developed to support hit confirmation and the hit-to-probe optimization process. In order to determine that the compounds bind effectively to the target and disrupt protein-protein interaction, a SPR competitive binding assay was used. This assay uses a platform that differs from the FP-based assay where DOT1L recombinant protein (residues […]) is immobilized on a CM5 chip, allowing for testing of the inhibitors for their ability to disrupt AF9-DOT1L protein-protein interactions.

Experiment [2] has as its target T2, ENL (Homo sapiens, UniProt Q03111).
T2 construct: against AF9(497-568) and ENL (489-559) proteins running different tested concentrations over CM5 chip; MBP (pMSCG9-LIC vector); made in house; host or cells: Escherichia coli BL21 (DE3)
T2 sequence (Q03111 489-559): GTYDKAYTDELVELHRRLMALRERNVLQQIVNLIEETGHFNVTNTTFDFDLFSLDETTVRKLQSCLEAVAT
Nature of the experiment: SPR competitive binding assay of small molecules, ENL. Particulars: SPR competitive based assay; read-out: ENL IC50 ± SD.
From the text: as §1
This class of compounds was also tested for their binding against ENL protein, which is highly homologous with AF9.

For experiment [3], the target named is T2, ENL. The experiment can be described thus: Solution competitive SPR assay of peptides, ENL-DOT1L interaction. The class given is binding. The settings on record: CM5 chip with immobilized DOT1L protein, read-out: IC50 ± SD ENL. The method, then:
Solution competitive SPR based assay was performed to determine the IC50 values of DOT1L peptides. […] Response units (RU) were measured at 15 seconds in the dissociation phase and the specific binding was calculated by subtracting the control surface (Fcl) signal from the surfaces with immobilized Mocr-DOT1L. IC50 values were determined by non-linear least squares analysis using Graph Pad Prism 5.0 software.
Background: In SPR one partner is held on a chip, and binding of the other changes the refractive index at the surface.

Experiment [4] has as its target T1, AF9. Nature of the experiment: Optimized competitive FP binding assay (N-Flu-DOT1L / AF9). The arrangement: the recombinant GB1-AF9 protein (residues 497-568); made in house; host or cells: Escherichia coli BL21 (DE3).
Another experiment has as its target T3, AF9 (497-568) (Homo sapiens, UniProt P42568).
T3 construct: human AF9 (residues 497-568); GB1 (pGB1-LIC vector); made in house; host or cells: Escherichia coli BL21 (DE3)
T3 sequence (P42568 497-568): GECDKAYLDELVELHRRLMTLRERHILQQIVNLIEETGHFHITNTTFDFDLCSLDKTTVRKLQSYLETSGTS
Nature of the experiment: SPR binding of AF9 to immobilized DOT1L constructs. The settings on record: DOT1L construct immobilized on CM5 sensor chip, read-out: AF9 (497-568) Kd ± SD. From the text: (§2) AF9 and ENL are two of the most common MLL fusion proteins (see, e.g., Daser A, Rabbitts T H (2004) Genes & development 18: 965-974) and belong to the YEATS protein family (see, e.g., Schulze J M, et al., (2009) Biochem Cell Biol 87: 65-75). Both of these two proteins consist of N-terminal YEATS domain and a C-terminal hydrophobic domain (see, e.g., Zhang W, et al., (2007) J Clin Invest 117: 773-783). AF9 and ENL shared high homology in the C-terminal domain and it had been shown that through this domain AF9/ENL are involved in the PPI which is crucial for MLL leukemia transformation (see, e.g., Dobson C L, et al., (1999) Embo J 18: 3564-3574; Mueller D, et al., (2007) Blood 110: 4445-4454; Yokoyama A, et al., (2010) Cancer cell 17: 198-212). The interaction of AF9 or ENL with DOT1L has been reported previously by co-immunoprecipitation and yeast 2-hybrid studies (see, e.g., Biswas D, et al., (2011) PNAS 108: 15751-15756; Yokoyama A, et al., (2010) Cancer cell 17: 198-212; Zhang W, et al., (2006) J Biol Chem 281: 18059-18068; Zhang W, et al., (2007) J Clin Invest 117: 773-783; Mueller D, et al., (2007) Blood 110: 4445-4454). However, there is a lack of detailed biochemical and biophysical characterization of this interaction. To understand the molecular basis of DOT1L interaction with MLL-fusion proteins, these PPIs were analyzed using surface plasma resonance (SPR). An SPR assay was developed to quantify the binding affinity between full length DOT1L protein and MLL-fusion proteins. For that purpose, the flag-tagged full length DOT1L protein was transiently transfected in HEK 293 cells and after 48 hours transfection the flag-tagged DOT1L protein was captured from the HEK 293 whole cell lysate on an anti-flag antibody-coated biosensor chip (FIG. 1B and FIG. 14). The recombinant C-terminal domain from human AF9 (residues 497-568) and the corresponding segment from ENL protein (residues 489-559) were cloned, expressed and purified for the biochemical binding studies (FIG. 1A). […] For the first time these studies quantitatively determined the binding affinity of DOT1L to AF9 and ENL and confirmed that DOT1L directly interacts with AF9 and ENL and has about six folds higher affinity against AF9 in comparison with ENL.
(§3) Surface Plasmon Resonance (SPR) binding studies—All SPR based experiments were performed on a BIAcore 2000 (BIAcore, GE Healthcare) instrument. Different tested DOT1L recombinant proteins were immobilized on a CM5 sensor chip by standard EDC/NHS coupling chemistry followed by ethanolamine deactivation of the surfaces. For immobilization of full length Flag-DOT1L protein, anti-Flag antibody (Sigma, Anti-FLAG M2) was immobilized on CM5 chip by the same amine coupling chemistry. HEK293 whole cells lysate with overexpressed Flag-DOT1L at 2.4 μg/l total protein concentration was injected over the Flag antibody surface, followed by injecting of AF9 and ENL in different concentrations. […] The Fcl surface was used as a control surface and was treated in the same manner as the active surfaces but in the absence of immobilized protein. Binding parameters, kon, koff and Kd were calculated by simultaneous non-linear regression using BIAEvaluation software.

A further experiment deals with T4, ENL (489-559) (Homo sapiens, UniProt Q03111).
T4 construct: ENL protein (residues 489-559); MBP (pMSCG9-LIC vector); made in house; host or cells: Escherichia coli BL21 (DE3)
T4 sequence (Q03111 489-559): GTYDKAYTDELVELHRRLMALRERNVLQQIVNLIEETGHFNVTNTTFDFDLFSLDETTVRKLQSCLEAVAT
Nature of the experiment: SPR binding of ENL to immobilized DOT1L constructs. Particulars: DOT1L construct immobilized on CM5 sensor chip, read-out: ENL (489-559) Kd ± SD.
From the text: as §2, §3

The mark [5] stands for this setting: SPR competitive, read-out: IC50, inhibition of AF9-DOT1L interaction.
Setting [6] is: SPR competitive based assay, read-out: AF9 IC50 ± SD.

Broadly, the IC50 is the point on the concentration scale where inhibition reaches its midpoint. For the molecule `O=c1c(O)cccc2cc(O)c(O)c(O)c12` [CCG-38505], the IC50 on AF9 [1] (setting [5]) worked out at 5720 nM.

Regarding `O=C(c1cc(O)c(O)c(O)c1)c1ccc(O)c(O)c1O` [CCG-208095], the IC50 on AF9 [1] (setting [5]) worked out at 6270 nM.

Consider `Cc1ccc(S(=O)(=O)N2c3ccccc3NC3=C(C(=O)CC(C)(C)C3)C2c2ccco2)cc1` (stereo not shown) [Compound 41], for which the half-inhibitory concentration (IC50) on ENL [2] turned out to be 33200 ± 8700 nM; at AF9 [1] (setting [6]), 46400 ± 12400 nM.

Consider `CC1(C)CC(=O)C2=C(C1)Nc1ccccc1N(S(C)(=O)=O)C2c1cccs1` (stereo not shown) [Compound 51], for which the IC50 on ENL [2], at AF9 [1] (setting [6]) and on AF9 [1] (setting [5]) was greater than 200000 nM each time.

For `Cc1ccc(C)c(S(=O)(=O)N2c3ccccc3NC3=C(C(=O)CCC3)C2c2cccs2)c1` (stereo not shown) [Compound 52], the IC50 came to 25100 ± 2500 nM on ENL [2] and 43100 ± 800 nM on AF9 [1] (setting [6]).

`CC[C@H](C)[C@H](NC(=O)[C@H](CO)NC(=O)[C@H](C)NC(=O)[C@@H]1CCCN1C(=O)[C@H](CC(C)C)NC(C)=O)C(=O)N1CCC[C@H]1C(=O)N[C@@H](CC(C)C)C(=O)N[C@@H](CO)C(=O)N[C@H](C(=O)N[C@H](C(N)=O)C(C)C)[C@@H](C)O` [Compound I867A] (Ac-LPASIPLSTV-NH2): the IC50 at ENL [3] was greater than 200000 nM.

By Ki is commonly meant the equilibrium dissociation constant of an inhibitor or competing ligand from its target. Take `CC[C@H](C)[C@H](NC(=O)[C@@H]1CCCN1C(=O)[C@H](CC(C)C)NC(C)=O)C(=O)N[C@@H](CO)C(=O)N[C@H](C(=O)N1CCC[C@H]1C(=O)N[C@@H](CC(C)C)C(=O)N[C@@H](CO)C(=O)N[C@@H](C)C(=O)N[C@H](C(N)=O)C(C)C)[C@@H](C)CC` [Compound T873A] (Ac-LPISIPLSAV-NH2): the Ki at AF9 [4] was found to be 203 nM.

One may read the Kd as the equilibrium constant for the complex coming apart. Regarding “DOT1L (1-1537): Flag-tagged full length human DOT1L protein”, the Kd amounted to 33 ± 4 nM in the experiment with AF9 (497-568) and 206 ± 80 nM in the experiment with ENL (489-559).

B1: DOT1L (854-1095): recombinant truncated DOT1L construct (protein)
chain: AYGSSGELITSLPISIPLSTVQPNKLPVSIPLASVVLPSRAERARSTPSPVLQPRDPSSTLEKQIGANAHGAGSRSLALAPAGFSYAGSVAISGALAGSPASLTPGAEPATLDESSSSGSLFATVGSRSSTPQHPLLLAQPRNSLPASPAHQLSSSPRLGGAAQGPLPEASKGDLPSDSGFSDPESEAKRRIVFTITTGAGSAKQSPSSKHSPLTASARGDCVPSHGQDSRRRGRRKRASAG
On to B1, for which the values for the Kd in the experiment with AF9 (497-568) and in the experiment with ENL (489-559) were 135 ± 4 nM and 148 ± 14 nM, respectively.

B2: DOT1L (925-1095): recombinant truncated DOT1L construct (protein)
chain: AGSRSLALAPAGFSYAGSVAISGALAGSPASLTPGAEPATLDESSSSGSLFATVGSRSSTPQHPLLLAQPRNSLPASPAHQLSSSPRLGGAAQGPLPEASKGDLPSDSGFSDPESEAKRRIVFTITTGAGSAKQSPSSKHSPLTASARGDCVPSHGQDSRRRGRRKRASAG
As for B2, the values for the Kd in the experiment with AF9 (497-568) and with ENL (489-559) were 1820 nM and 6220 nM, respectively.

B3: DOT1L (826-937): recombinant truncated DOT1L construct (protein)
chain: SPQDPRPLSPGALQLAGEKSSEKGLRERAYGSSGELITSLPISIPLSTVQPNKLPVSIPLASVVLPSRAERARSTPSPVLQPRDPSSTLEKQIGANAHGAGSRSLALAPAGF
As for B3, the Kd with AF9 (497-568) was 78 ± 15 nM; with ENL (489-559) it was 81 ± 6 nM.

B4: DOT1L (826-1095): recombinant DOT1L construct (protein)
chain: SPQDPRPLSPGALQLAGEKSSEKGLRERAYGSSGELITSLPISIPLSTVQPNKLPVSIPLASVVLPSRAERARSTPSPVLQPRDPSSTLEKQIGANAHGAGSRSLALAPAGFSYAGSVAISGALAGSPASLTPGAEPATLDESSSSGSLFATVGSRSSTPQHPLLLAQPRNSLPASPAHQLSSSPRLGGAAQGPLPEASKGDLPSDSGFSDPESEAKRRIVFTITTGAGSAKQSPSSKHSPLTASARGDCVPSHGQDSRRRGRRKRASAG
As to B4, the Kd in the experiment with AF9 (497-568) is 111 nM; in the experiment with ENL (489-559), 238 nM.

B5: DOT1L (826-958): recombinant truncated DOT1L construct (protein)
chain: SPQDPRPLSPGALQLAGEKSSEKGLRERAYGSSGELITSLPISIPLSTVQPNKLPVSIPLASVVLPSRAERARSTPSPVLQPRDPSSTLEKQIGANAHGAGSRSLALAPAGFSYAGSVAISGALAGSPASLTP
As for B5, the dissociation constant (Kd) with AF9 (497-568) amounted to 92 ± 8 nM; in the experiment with ENL (489-559), 122 ± 16 nM.

B6: DOT1L (854-925): recombinant truncated DOT1L construct, 72 amino acids (protein)
chain: AYGSSGELITSLPISIPLSTVQPNKLPVSIPLASVVLPSRAERARSTPSPVLQPRDPSSTLEKQIGANAHGA
As to B6, the Kd with AF9 (497-568) worked out at 42 nM; with ENL (489-559), 90 nM.
